Assay results reported in patent US20160312265, “USE OF NUCLEIC ACID AGENTS FOR ULTRA-SENSITIVE DIGITAL DETECTION AND QUANTIFICATION OF TARGET MOLECULES” (Aptitude Medical Systems, Inc., published 2016).

Molecular target: TNFα (tumor necrosis factor alpha) (UniProt P01375 P01375:77-233)
Experiment: antibody-capture / aptamer-detection sandwich in ELISA wells, 5 nM aptamer, eluted at 95 C and counted by digital PCR; PBS, 0.05% Tween-20, 2.5 mM MgCl2, 1 mM CaCl2 wash; no numerical result in text
Settings: tags: Shenandoah Biotechnology 100-111; chain copies: 3 (inferred)
Protocol: The ELISA wells (Thermo Scientific, Catalog #: 15031) were functionalized with a TNFα antibody (eBioscience, Catalog #: 14-7349-85) at 5 μg/ml in PBS overnight at 4° C. Right before use, the ELISA wells were blocked with 300 μL AptaBuffer (PBS+0.05% Tween-20+2.5 mM MgCl₂+1 mM CaCl₂+1% BSA+0.5 mg/mL Dextran Sulfate+0.1 mg/mL Salmon Sperm DNA) with gentle shaking at ˜500 RPM for at least 30 minutes.
Next, test samples (50 μL) containing the protein of interest (TNFα, Shenandoah Biotechnology, Catalog #: 100-111) were added to the washed ELISA wells and incubated for 1 hour with gentle shaking After the target-capture incubation, the ELISA wells were washed once with PBSMCT (PBS+0.05% Tween-20+2.5 mM MgCl₂+1 mM CaCl₂) and 5 nM of the detection TNFα aptamer was added to the wells and incubated for 30 minutes with gentle shaking. The ELISA plate was then washed 4 times with 300 μl of PBS-MCT after the incubation with the detection aptamer. In an embodiment, the sequence of TNFα aptamer is 5′-[…] […]-3′.
For the elution step, 100 μL of PCR grade water was added to each ELISA well. After heating the plate at 95° C. for 10 minutes, we transfer the 100 μL of eluent containing the detection aptamers into a new tube. The eluents are diluted 10 fold before they are measured by the QuantStudio® 3D Digital PCR System from Life Technologies.

Sequence of TNFα (tumor necrosis factor alpha) (P01375 77-233, one chain of several): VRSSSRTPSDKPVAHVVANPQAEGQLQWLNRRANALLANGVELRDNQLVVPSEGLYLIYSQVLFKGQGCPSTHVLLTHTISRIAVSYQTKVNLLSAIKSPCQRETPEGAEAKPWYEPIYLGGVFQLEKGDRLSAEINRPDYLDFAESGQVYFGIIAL

B1: TNFα detection aptamer (ssDNA)
DNA: ATCCAGAGTGACGCAGCATGCTTAAGGGGGGGGCGGGTTAAGGGAGTGGGGAGGGAGCTGGTGTGGACACGGTGGCTTAGT
- binding result: binds
